According to publication PMC8534903:

System: His-Mwt (matrix protein M) (Human respiratory syncytial virus (A2?))
Experiment: EMSA
Conditions: 10 mM HEPES (pH not stated), 0.25 mM DTT, 50 mM KCl, 10 uL, 15 min at room temperature; 0.8% agarose gel, 40 V, 8 h, 4 C

control luciferase RNA (T7 transcript) was tested, and the K half was 2100 nM.
